Assays:
ngMutL [1] = biological target: T1, ngMutL (Neisseria gonorrhoeae, UniProt Q5F8M6 1-658); assay: EMSA; apparent Kd, per dimer; no ATP; 20 mM HEPES pH 8.0, 100 mM KCl, 0.5 mg/mL BSA, 1 mM DTT, 20 nM DNA, 15-1000 nM ngMutL dimer, 10 min on ice; 6% native PAGE in TAE at 4 C; conditions: protein: recombinant, tags: N-terminal His6, chain copies: 2, label: 3'-TAMRA on strand 1, blunt
T1 sequence: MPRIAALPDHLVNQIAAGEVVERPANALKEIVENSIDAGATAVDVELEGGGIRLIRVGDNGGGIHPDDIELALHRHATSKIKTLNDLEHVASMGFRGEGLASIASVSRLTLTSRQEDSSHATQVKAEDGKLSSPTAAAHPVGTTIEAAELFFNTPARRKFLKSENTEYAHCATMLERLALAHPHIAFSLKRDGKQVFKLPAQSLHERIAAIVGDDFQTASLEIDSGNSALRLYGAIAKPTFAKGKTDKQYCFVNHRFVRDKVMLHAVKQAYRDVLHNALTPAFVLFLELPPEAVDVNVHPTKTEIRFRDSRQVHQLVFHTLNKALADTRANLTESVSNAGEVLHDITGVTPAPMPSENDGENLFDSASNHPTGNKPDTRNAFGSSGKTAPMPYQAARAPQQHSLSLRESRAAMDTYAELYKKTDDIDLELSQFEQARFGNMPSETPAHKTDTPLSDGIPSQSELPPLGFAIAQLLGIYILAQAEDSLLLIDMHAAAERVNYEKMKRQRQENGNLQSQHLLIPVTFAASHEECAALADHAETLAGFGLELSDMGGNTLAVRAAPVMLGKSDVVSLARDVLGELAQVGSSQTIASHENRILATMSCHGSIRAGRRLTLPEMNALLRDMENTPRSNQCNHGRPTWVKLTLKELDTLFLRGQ

ngMutL [2] = biological target: T1, ngMutL; assay: EMSA; increasing ATP; binding not significantly reduced by ATP; 20 mM HEPES pH 8.0, 100 mM KCl, 0.5 mg/mL BSA, 1 mM DTT, 20 nM DNA, 15-1000 nM ngMutL dimer, 10 min on ice; 6% native PAGE in TAE at 4 C; conditions: protein: recombinant; tags: N-terminal His6; chain copies: 2; label: 3'-TAMRA on strand 1; duplex with unpaired G4 insert in strand 1, blunt ends

B1: 41pilG4/41M (dsDNA)
DNA 1: ACGCGTTAGAATAGGGTGGGTTGGGTGGGGAATTTTCTATT
DNA 2: AATAGAAAATTCCCCACCCAACCCACCCTATTCTAACGCGT
ngMutL [1]; G4 may be partially preserved by CD
  Kd: 650 nM

B2: 95pilG4/95M (dsDNA)
DNA 1: GTCGGAATTTGAGATTTTTGAATTTACGCGTTAGAATAGGGTGGGTTGGGTGGGGAATTTTCTATTTTTTAAAAAGCTCCGTTTTCTTGGAAAGC
DNA 2: GCTTTCCAAGAAAACGGAGCTTTTTAAAAAATAGAAAATTCCCCACCCAACCCACCCTATTCTAACGCGTAAATTCAAAAATCTCAAATTCCGAC
ngMutL [1]
  Kd: 123 nM

B3: 95G4/76M (mixed)
DNA 1: ATAGGACGCTGACACTGGTGCTTGGCAGCTGAGCCATATTTGGGTGGGTGGGTGGGTTGCTCGAGTAACGCTCATAGGATCCAAGCGCGAAAGGA
DNA 2: TCCTTTCGCGCTTGGATCCTATGAGCGTTACTCGAGCATATGGCTCAGCTGCCAAGCACCAGTGTCAGCGTCCTAT
ngMutL [2]
  binding result: binds

Source: PMC10094033, “pilE G-Quadruplex Is Recognized and Preferentially Bound but Not Processed by the MutL Endonuclease from Neisseria gonorrhoeae Mismatch Repair Pathway”
